Assay results published in patent US20100204147A1, “Methods For Delivering Thymosin Beta 4, Analogues, Isoforms and Other Derivatives” (REGENERX BIOPHARMACEUTICALS, INC., priority 2003, published 2010).

Biological target: T1, fibrin (Homo sapiens, UniProt P02671)
T1 construct: purchased Enzyme Research Laboratories (South Bend, Ind.); host or cells: fibrin generated in the well or tube from the purchased fibrinogen with bovine thrombin
T1 sequence (P02671 36-629): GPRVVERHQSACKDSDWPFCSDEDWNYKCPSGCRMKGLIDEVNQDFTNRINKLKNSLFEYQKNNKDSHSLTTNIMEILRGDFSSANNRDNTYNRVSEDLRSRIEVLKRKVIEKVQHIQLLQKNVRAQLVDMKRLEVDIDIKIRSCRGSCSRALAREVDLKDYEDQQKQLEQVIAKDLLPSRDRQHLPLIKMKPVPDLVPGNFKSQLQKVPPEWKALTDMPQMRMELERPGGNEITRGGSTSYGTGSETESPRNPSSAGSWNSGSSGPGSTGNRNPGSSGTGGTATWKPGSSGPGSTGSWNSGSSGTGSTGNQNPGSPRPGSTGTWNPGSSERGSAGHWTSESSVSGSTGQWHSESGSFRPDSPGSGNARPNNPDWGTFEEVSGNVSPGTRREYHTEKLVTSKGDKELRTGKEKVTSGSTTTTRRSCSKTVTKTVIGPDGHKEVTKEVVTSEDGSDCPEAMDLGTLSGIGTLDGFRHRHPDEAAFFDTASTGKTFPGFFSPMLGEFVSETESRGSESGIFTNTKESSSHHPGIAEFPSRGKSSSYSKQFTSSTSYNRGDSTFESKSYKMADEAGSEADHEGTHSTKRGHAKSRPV
T1 sequence (P02675 45-491 partner): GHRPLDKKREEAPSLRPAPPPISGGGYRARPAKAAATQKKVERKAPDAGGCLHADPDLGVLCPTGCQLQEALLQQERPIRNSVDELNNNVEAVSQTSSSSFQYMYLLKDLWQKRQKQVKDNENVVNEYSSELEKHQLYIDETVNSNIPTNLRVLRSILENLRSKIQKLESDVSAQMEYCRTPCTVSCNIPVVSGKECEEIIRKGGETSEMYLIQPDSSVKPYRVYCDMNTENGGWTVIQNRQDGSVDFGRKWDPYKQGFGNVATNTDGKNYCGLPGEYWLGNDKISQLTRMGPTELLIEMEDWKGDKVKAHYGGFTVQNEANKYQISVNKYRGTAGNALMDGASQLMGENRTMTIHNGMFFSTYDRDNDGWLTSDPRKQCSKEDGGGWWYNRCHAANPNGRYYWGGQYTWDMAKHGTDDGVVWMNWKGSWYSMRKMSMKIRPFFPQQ
T1 sequence (P02679 27-437 isoform P02679-2 partner): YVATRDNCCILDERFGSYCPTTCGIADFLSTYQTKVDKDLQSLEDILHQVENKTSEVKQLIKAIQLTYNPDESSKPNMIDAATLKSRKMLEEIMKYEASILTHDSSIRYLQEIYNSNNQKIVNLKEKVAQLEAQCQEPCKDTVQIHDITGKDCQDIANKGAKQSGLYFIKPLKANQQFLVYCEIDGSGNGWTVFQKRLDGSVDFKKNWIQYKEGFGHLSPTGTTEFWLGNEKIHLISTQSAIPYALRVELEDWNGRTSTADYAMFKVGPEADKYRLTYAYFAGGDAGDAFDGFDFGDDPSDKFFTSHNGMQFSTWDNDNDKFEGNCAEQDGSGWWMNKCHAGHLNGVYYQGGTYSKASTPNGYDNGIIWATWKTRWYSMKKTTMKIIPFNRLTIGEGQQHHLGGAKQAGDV
Test: Western blot time course of factor XIIIa-mediated incorporation into fibrin
Type: biochemical
Conditions: mixture of thrombin, factor XIII, thymosin β4 and fibrin; immunoblotting
Procedure: Reactions of incorporation of FITC-labeled and unlabeled thymosin β4 into fibrinogen and fibrin were performed in Eppendorf tubes containing a mixture of fibrinogen at 3 mg/mL (9 μM) and thymosin β4 or FITC-labeled thymosin β4 at […] (30 μM) in 100 μL TBS with 2.5 mM CaCl2. The reactions were initiated by addition of FXIIIa(Ca) or FXIIIa(Thr) to final concentration of 30 μg/mL. The final concentration of thrombin in the FXIIIa(Thr)-containing mixtures was made at 2.5 NIH u/mL, sufficient to rapidly form fibrin clot which was observed visually. The reactions with FITC-labeled thymosin β4 lasted for 4 hours at 37° C. in the dark and were stopped by heat inactiviation of the enzymes in boiling water for 5 min during fibrinogen and fibrin denatured and precipitated. The pellets were centrifuged and washed 3 times in TBS and then solubilized. The amounts of fibrin(ogen) and FITC-labeled thymosin β4 in the solubilized pellet were determined spectrophotomertrically using absorption molar coefficients E280,1%=15.0 and ε495=72,000 M^−1cm^−1, respectively. […]
Detection of thymosin β4 incorporated into fibrin(ogen) and its fragments was performed as follows. […] The membrane was blocked with a casein blocker for 1 hour and thymosin β4 was detected by the reaction with rabbit anti-thymosin β4 serum and peroxidase-conjugated anti-rabbit IgG. […]

For thymosin β4, the “time at which the amount of incorporated (cross-linked) thymosin β4 reaches saturation” value was 4 h.
